From patent US20030228608, “Method to enhance homologous recombination” (Promega Corporation, published 2003)

T1: RecA (Thermotoga maritima, UniProt P36203 P36203:1-356)
T1 sequence: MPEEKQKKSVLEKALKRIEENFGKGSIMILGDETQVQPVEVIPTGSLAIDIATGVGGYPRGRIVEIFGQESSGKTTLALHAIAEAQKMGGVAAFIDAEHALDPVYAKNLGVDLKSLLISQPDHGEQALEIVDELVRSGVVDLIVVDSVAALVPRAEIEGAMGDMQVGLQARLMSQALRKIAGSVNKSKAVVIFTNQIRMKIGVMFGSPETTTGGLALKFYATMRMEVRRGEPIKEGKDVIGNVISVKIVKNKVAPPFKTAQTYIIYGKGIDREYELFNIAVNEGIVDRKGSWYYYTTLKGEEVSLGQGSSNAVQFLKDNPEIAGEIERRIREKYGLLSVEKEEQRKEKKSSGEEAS


Assays:
RecA [1] = target: T1, RecA; assay: EMSA; nucleoprotein assembly; 75 C, 2 mM Mg acetate, ATPgammaS or dATP/ATPgammaS; more efficient than E. coli RecA; details: tags: untagged; expressed in E. coli; label: 5' fluorescein
Procedure: (§1) To detect recombinase coating of a substrate (nucleoprotein assembly), a gel shift assay with a labeled ssDNA may be employed. For example, 0.1 μM of a fluorescein-tagged 91-mer oligonucleotide (F-[…] […] GAT; SEQ ID NO: 1) was used as a substrate for coating by RecA. The coating buffer for E. coli RecA was 25 mM Tris acetate, pH 7.85, 15 mM potassium glutamate (K-Glu), 5 mM Mg acetate, and 2.5 mM DTT. The coating buffer for Thermotoga RecA was 25 mM Tris acetate, pH 8.0, 15 mM K-Glu, 2 mM Mg acetate, 2.5 mM DTT and 0.1% Triton. The coating buffer also included ATPyS (3 mM), or dATP and ATPγS at a ratio of 10:1 (3 mM and 0.3 mM, respectively). RecA was then added to the coating buffer containing the substrate at a ratio of 4 μM RecA for 10 μM of base. The E. coli RecA coating reaction was incubated for up to 60 minutes at 42° C. and the Thermotoga RecA coating reaction was incubated for up to 60 minutes at 75° C. (or 65° C.), although other temperatures may be employed. The tagged oligonucleotide was visualized and quantified using a FluorImager-SI and ImageQuant Software.

RecA [2] = target: T1, RecA; assay: EMSA; 75 C, 2 mM Mg acetate; slower assembly than 91-mer; more efficient than E. coli RecA; details: tags: untagged; expressed in E. coli; label: 5' fluorescein
Procedure: as §1, with “Software. […]” for “Software.”

| Binder | binding result (RecA [1]) | binding result (RecA [2]) |
| --- | --- | --- |
| 91-mer (ssDNA, [1 (5'-fluorescein)]) DNA: ACAACAACTGGCGGGCAAACAGTCGTTGCTGATTGGCGTTGCCTAATCCAGTCTGGCCCTGCACGCGCCGTCGCAAATTGTCGCGGCGAT | binds |  |
| GCTGATTGGCGTTGCCTAATCCAGTCTGGCCCTGC (ssDNA, [5'-F label (position 1)]) [35-mer] |  | binds |
| 51-mer (ssDNA, [5'-F label (position 1)]) DNA: CAGTCGTTGCTGATTGGCGTTGCCTAATCCAGTCTGGCCCTGCACGCGCCG |  | binds |
